In publication PMC4941327:
pKd: −log10 of the molar value.

Biological target: mAb04-MICA antibody fusion protein (human) (UniProt Q29983)
Assay: SPR; Biacore X100; mAb04-MICA captured on a CM5 chip by anti-human IgG (Fc) antibody; soluble NKG2D injected at 7.8125-250 nM; HBS-EP pH 7.4; bivalent analyte model (the results say 2:1 binding model)

Chain of UniProt Q29983 (Q29983 whole entry, looked up, the tested form may be a part): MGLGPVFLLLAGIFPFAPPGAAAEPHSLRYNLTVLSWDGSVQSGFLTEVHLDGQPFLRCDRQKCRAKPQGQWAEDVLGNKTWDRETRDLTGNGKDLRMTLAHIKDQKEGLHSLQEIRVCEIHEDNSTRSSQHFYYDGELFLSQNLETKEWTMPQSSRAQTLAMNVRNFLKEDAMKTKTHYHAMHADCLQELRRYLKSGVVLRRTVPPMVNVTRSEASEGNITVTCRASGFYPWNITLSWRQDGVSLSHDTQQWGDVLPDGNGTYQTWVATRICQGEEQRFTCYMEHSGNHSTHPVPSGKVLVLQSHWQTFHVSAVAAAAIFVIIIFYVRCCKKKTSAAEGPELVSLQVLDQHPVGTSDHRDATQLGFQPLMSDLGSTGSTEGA

pKd: 6.15
koff: 188 s⁻¹
kon: 2.65e+08 M⁻¹ s⁻¹
Substance: soluble recombinant NKG2D (from UniProt P26718 1-216) (receptor)
